The values below come from PMC4414297, “An epitope tag alters phosphoglycerate dehydrogenase structure and impairs ability to support cell proliferation” (Cancer & Metabolism, 2015).

The series deals with the molecule itself. Description: negative-stain electron microscopy; 12 ng/ul His-PHGDH or 15 ng/ul untagged PHGDH with 0.5 mM NADH, 2% uranyl acetate; reference-free alignment, class averages, particle areas compared.

B1: recombinant untagged PHGDH (D-3-phosphoglycerate dehydrogenase) (enzyme, human, UniProt O43175 1-533, looked up)
chain: MAFANLRKVLISDSLDPCCRKILQDGGLQVVEKQNLSKEELIAELQDCEGLIVRSATKVTADVINAAEKLQVVGRAGTGVDNVDLEAATRKGILVMNTPNGNSLSAAELTCGMIMCLARQIPQATASMKDGKWERKKFMGTELNGKTLGILGLGRIGREVATRMQSFGMKTIGYDPIISPEVSASFGVQQLPLEEIWPLCDFITVHTPLLPSTTGLLNDNTFAQCKKGVRVVNCARGGIVDEGALLRALQSGQCAGAALDVFTEEPPRDRALVDHENVISCPHLGASTKEAQSRCGEEIAVQFVDMVKGKSLTGVVNAQALTSAFSPHTKPWIGLAEALGTLMRAWAGSPKGTIQVITQGTSLKNAGNCLSPAVIVGLLKEASKQADVNLVNAKLLVKEAGLNVTTSHSPAAPGEQGFGECLLAVALAGAPYQAVGLVQGTTPVLQGLNGAVFRPEVPLRRDLPLLLFRTQTSDPAMLPTMIGLLAEAGVRLLSYQTSLVSDGETWHVMGISSLLPSLEAWKQHVTEAFQFHF
notes: D-3-phosphoglycerate dehydrogenase (PHGDH), human, expressed from pET28a PHGDH without a tag; Oligomer size is left open (dimer, trimer, or tetramer); also called rPHGDH; source: E. coli BL21, purified (Cibacron Blue F3GA, MonoQ, Sephacryl S-200)
With B1, the binding result is recorded as “binds”.
